Assay results as given in article PMC2831308.

System: carboxyltransferase (CT) alpha2beta2, wild-type (Escherichia coli)
Assay: EMSA

Q: Which Kd does the source give for “CT alpha transcript, 213 nt upstream of AUG to gene end” here?
A: The Kd was 145 nM.
